Test results as given in the Human Domainome abundance scans (Beltran et al. 2025).
± gives the uncertainty stated by the source.

B1: Zinc finger homeobox protein 4, residues 2086 to 2141; numbered along this chain, Q86UP3 (parent)
chain: RPRTRITDDQLKILRAYFDINNSPSEEQIQEMAEKSGLSQKVIKHWFRNTLFKERQ
B2: Ubiquitin-protein ligase residues 30 to 86; numbered along this chain, Q05086 (parent)
chain: KHLIERYYHQLTEGCGNEACTNEFCASCPTFLRMDNNAAAIKALELYKINAKLCDPH

Variants of: B1
Test: abundance fitness (aPCA) (normalised: wild type 0, dead -1); higher = more abundant; growth selection in yeast, the domain comes from the species named
Details: Homo sapiens

Abundance fitness: each site, then its substitutions
I6: Y -0.047 ± 0.08, H -0.271 ± 0.071, L 0.006 ± 0.062, Q -0.389 ± 0.11, T -0.246 ± 0.074, N -0.377 ± 0.084, A -0.069 ± 0.086, R -0.596 ± 0.077, V -0.04 ± 0.077, E -0.18 ± 0.2, G -0.381 ± 0.09, W -0.553 ± 0.11, D -0.148 ± 0.13, C -0.318 ± 0.084, K -0.433 ± 0.13, F 0.002 ± 0.07, P -0.103 ± 0.076, S -0.245 ± 0.07, M 0.369 ± 0.094
T4: E -0.096 ± 0.11, P -0.139 ± 0.12, S -0.198 ± 0.077, W -1.16 ± 0.16, V -0.116 ± 0.078, L -0.011 ± 0.081, I -0.048 ± 0.11, C -0.965 ± 0.24, F 0.036 ± 0.12, R -0.413 ± 0.076, H 0.01 ± 0.17, N 0.123 ± 0.13, M 0.224 ± 0.11, A -0.271 ± 0.084, Q -0.284 ± 0.13, K -0.329 ± 0.15
R3: K -0.011 ± 0.16, M 0.216 ± 0.11, Q 0.201 ± 0.13, F -0.15 ± 0.095, N -0.033 ± 0.12, D 0.015 ± 0.1, H 0.042 ± 0.13, Y 0.026 ± 0.12, C -0.343 ± 0.097, S 0.071 ± 0.079, I -0.136 ± 0.1, E 0.054 ± 0.12, G 0.099 ± 0.064, V -0.037 ± 0.068, W -0.569 ± 0.09, L -0.024 ± 0.083, P -0.096 ± 0.12, T 0.102 ± 0.091
T7: S -0.125 ± 0.083, E 0.082 ± 0.19, M 0.038 ± 0.12, H -0.344 ± 0.096, A 0.02 ± 0.12, Q -0.42 ± 0.17, R -0.054 ± 0.12, V -0.217 ± 0.1, N -0.038 ± 0.092, D 0.174 ± 0.14, L -0.271 ± 0.079, I -0.288 ± 0.081, P -0.241 ± 0.1, F -0.352 ± 0.1, W -0.774 ± 0.38, Y -0.491 ± 0.093, C -0.337 ± 0.14, K -0.344 ± 0.23
R1: W -1.13 ± 0.23, M -0.634 ± 0.22, L -0.101 ± 0.2, I -0.116 ± 0.12, S -0.284 ± 0.096, P -0.512 ± 0.22, N 0.247 ± 0.12, C -0.033 ± 0.14, Y -0.157 ± 0.19, A -0.327 ± 0.37, F -0.327 ± 0.27, T -0.131 ± 0.12, H -0.211 ± 0.25, D 0.188 ± 0.24, K -0.891 ± 0.33, V -0.21 ± 0.23
P2: Q 0.173 ± 0.13, Y 0.022 ± 0.16, S 0.057 ± 0.078, C -0.844 ± 0.12, L -0.047 ± 0.088, M 0.143 ± 0.14, D 0.033 ± 0.11, N 0.18 ± 0.16, V 0.067 ± 0.081, W -1.01 ± 0.15, A -0.134 ± 0.097, F 0.157 ± 0.13, K 0.197 ± 0.15, G 0.048 ± 0.077, R -0.083 ± 0.08, T 0.049 ± 0.1, H 0.187 ± 0.14, I -0.067 ± 0.11
R5: N 0.184 ± 0.076, T 0.182 ± 0.068, V 0.022 ± 0.067, K 0.191 ± 0.1, D 0.198 ± 0.081, M 0.16 ± 0.094, C 0.136 ± 0.08, F 0.058 ± 0.075, W -0.184 ± 0.1, L 0.207 ± 0.066, P 0.172 ± 0.072, G -0.037 ± 0.069, I 0.067 ± 0.072, Q 0.183 ± 0.084, E 0.163 ± 0.11, Y 0.082 ± 0.073

Variants of: B2
Test: as above
Details: Homo sapiens

Abundance fitness, by site and new letter:
L46: P -0.528 ± 0.11, Y -0.312 ± 0.13, W -0.401 ± 0.073, D -0.389 ± 0.11, F -0.063 ± 0.13, K -0.754 ± 0.13, N -0.341 ± 0.15, A -0.107 ± 0.064, V -0.06 ± 0.066, E -0.514 ± 0.076, T -0.278 ± 0.09, Q -0.17 ± 0.081, H 0.035 ± 0.11, I -0.056 ± 0.17, S -0.095 ± 0.063, G -0.178 ± 0.057, C -0.029 ± 0.11, M -0.13 ± 0.1
K48: F -0.682 ± 0.13, P -0.222 ± 0.092, L -0.388 ± 0.061, S -0.161 ± 0.067, N 0.012 ± 0.15, E -0.058 ± 0.078, C -0.427 ± 0.096, Y -0.438 ± 0.14, A -0.17 ± 0.059, W -0.357 ± 0.085, R -0.072 ± 0.052, I -0.607 ± 0.18, Q -0.109 ± 0.1, H -0.111 ± 0.15, D 0.009 ± 0.1, M -0.424 ± 0.08, T -0.122 ± 0.079, V -0.455 ± 0.06, G -0.188 ± 0.05
N50: C -0.057 ± 0.09, L -0.143 ± 0.074, P -0.041 ± 0.088, V -0.158 ± 0.07, D 0.034 ± 0.11, K -0.095 ± 0.1, R -0.033 ± 0.051, H -0.05 ± 0.12, S 0.023 ± 0.063, Q -0.11 ± 0.097, A 0.004 ± 0.076, E -0.041 ± 0.096, W -0.31 ± 0.064, G -0.019 ± 0.048, I -0.356 ± 0.1, T -0.006 ± 0.11, Y -0.018 ± 0.16
A51: Q -0.289 ± 0.099, P -0.35 ± 0.1, F -0.053 ± 0.14, S -0.012 ± 0.062, D -0.052 ± 0.085, L -0.463 ± 0.065, M -0.189 ± 0.099, T -0.02 ± 0.079, Y -0.195 ± 0.15, K -0.093 ± 0.12, C -0.151 ± 0.1, V -0.082 ± 0.055, H -0.147 ± 0.13, N -0.152 ± 0.13, G -0.075 ± 0.049, I -0.45 ± 0.19, E -0.102 ± 0.071, W -0.029 ± 0.085
K52: S -0.31 ± 0.33, W -0.437 ± 0.32, R -0.052 ± 0.17
D55: Q 0.011 ± 0.08, S -0.059 ± 0.068, H -0.227 ± 0.11, Y -0.159 ± 0.086, P -0.027 ± 0.088, M 0.006 ± 0.088, N 0.017 ± 0.091, A -0.043 ± 0.059, C -0.099 ± 0.088, G -0.018 ± 0.061, L -0.027 ± 0.057, K 0.056 ± 0.084, W -0.106 ± 0.074, R -0.118 ± 0.066, F -0.06 ± 0.097, I -0.149 ± 0.098, E -0.017 ± 0.072, V -0.012 ± 0.057, T -0.087 ± 0.085
L44: P 0.059 ± 0.095, Y 0.131 ± 0.13, I 0.173 ± 0.23, W -0.16 ± 0.061, S 0.051 ± 0.068, K 0.108 ± 0.11, H -0.096 ± 0.16, D 0.042 ± 0.14, A 0.057 ± 0.062, G 0.057 ± 0.052, N 0.013 ± 0.14, V 0.017 ± 0.061, C -0.032 ± 0.12, R 0.074 ± 0.051, T 0.118 ± 0.1, F -0.122 ± 0.13
L53: W -0.164 ± 0.076, C -0.14 ± 0.1, Q 0.04 ± 0.11, A -0.098 ± 0.075, H -0.191 ± 0.15, I -0.032 ± 0.15, G -0.199 ± 0.063, S -0.097 ± 0.074, N -0.433 ± 0.17, Y -0.062 ± 0.16, M -0.073 ± 0.11, V -0.056 ± 0.067, E -0.068 ± 0.099, K -0.071 ± 0.093, T -0.109 ± 0.081, P -0.23 ± 0.11, D -0.353 ± 0.12, F -0.048 ± 0.14
Y47: R 0.05 ± 0.052, F 0.108 ± 0.13, C 0.031 ± 0.085, N 0.012 ± 0.14, W -0.085 ± 0.061, K 0.031 ± 0.12, H 0.088 ± 0.14, G 0.008 ± 0.047, L 0.027 ± 0.056, S 0.084 ± 0.067, A 0.088 ± 0.059, P -0.05 ± 0.092, V 0.06 ± 0.053, I -0.094 ± 0.11, Q -0.03 ± 0.096, T 0.073 ± 0.1
P56: D -0.035 ± 0.11, G 0.024 ± 0.069, F 0.098 ± 0.17, Q -0.068 ± 0.12, H -0.22 ± 0.11, L 0.044 ± 0.065, S -0.081 ± 0.082, C -0.041 ± 0.11, A -0.035 ± 0.064, Y -0.049 ± 0.19, K -0.055 ± 0.13, R 0.023 ± 0.065, W -0.038 ± 0.096, T 0.016 ± 0.11
K42: W -0.293 ± 0.064
H57: W -0.348 ± 0.23, G 0.013 ± 0.16, T 0.109 ± 0.16, A -0.022 ± 0.15, Y 0.017 ± 0.074, R -0.052 ± 0.11, E -0.505 ± 0.35, P -0.006 ± 0.1, V 0.173 ± 0.19, K -0.092 ± 0.43, D -0.051 ± 0.13, C 0.175 ± 0.2, Q 0.009 ± 0.22, S -0.268 ± 0.14, I -0.408 ± 0.43, N 0.104 ± 0.16, F 0.076 ± 0.26
I49: T 0.003 ± 0.31, L -0.043 ± 0.41
E45: F -0.221 ± 0.17, T -0.288 ± 0.14, D -0.199 ± 0.14, K -0.129 ± 0.11, S -0.067 ± 0.1, C -0.276 ± 0.19, N 0.11 ± 0.19, G -0.069 ± 0.084, Y -0.217 ± 0.18, H -0.184 ± 0.21, A -0.087 ± 0.083, M -0.181 ± 0.14, R -0.064 ± 0.1, W -0.372 ± 0.12, P -0.873 ± 0.27, Q -0.129 ± 0.1
C54: Y -0.94 ± 0.25, S -0.076 ± 0.42, F -0.448 ± 0.45
A43: I -0.92 ± 0.19, L -0.826 ± 0.071, R -0.717 ± 0.063, E -0.894 ± 0.1, F -1.06 ± 0.21, N -0.768 ± 0.15, D -0.856 ± 0.12, K -0.242 ± 0.088, G -0.156 ± 0.054, C -0.098 ± 0.075, S 0.027 ± 0.059, W -0.989 ± 0.099, M -0.321 ± 0.078, H -0.987 ± 0.16, P -0.467 ± 0.078, V -0.221 ± 0.057
